# From patent publication EP1882698A1 (Chemokine Therapeutics Corp., dated 2008)
# Non-standard residues stand in square brackets, D forms with d. No end group written: not given here. Aun = NCCCCCCCCCCC(=O)O
# T1: CXCR3 receptor (UniProt P49682 1-368, limits assumed)
# T1 sequence (looked up): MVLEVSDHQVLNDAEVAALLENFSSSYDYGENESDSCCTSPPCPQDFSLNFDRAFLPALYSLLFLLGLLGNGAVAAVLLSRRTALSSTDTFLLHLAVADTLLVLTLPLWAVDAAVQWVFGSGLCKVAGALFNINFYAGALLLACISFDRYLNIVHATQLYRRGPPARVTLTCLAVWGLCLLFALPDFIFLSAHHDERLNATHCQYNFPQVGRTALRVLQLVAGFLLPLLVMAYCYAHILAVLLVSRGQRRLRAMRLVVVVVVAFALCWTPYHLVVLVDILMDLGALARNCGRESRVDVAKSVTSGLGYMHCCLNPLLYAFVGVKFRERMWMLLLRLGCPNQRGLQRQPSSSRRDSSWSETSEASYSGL
# Molecular target: T1, CXCR3 receptor
# Assay: cell-based or functional assay
Binder,"calcium mobilization activity of CXCR-3/300-19 cells, dosage 1.2 µM","calcium mobilization activity of CXCR-3/300-19 cells, dosage 3.7 µM","calcium mobilization activity of CXCR-3/300-19 cells, dosage 11.1 µM","calcium mobilization activity of CXCR-3/300-19 cells, dosage 33.3 µM","calcium mobilization activity of CXCR-3/300-19 cells, dosage 100 µM"
Ac-VPLSRTVRCTCISISN[Aun]LKAVSKEMSKRSP (cysteine pairing not given here) [Acetylated-IP-10-(1-16)-[linker]-IP-10-(66-78)],12.6,12.7,14.1,20,52.9
"Ac-VPLSRTVRATFISISN[Aun]LKAVSKEMSKRSP [Acetylated-[Ala^9,Phe^11]-IP-10-(1-16)-[linker]-IP-10-(66-78)]",15.2,13.8,15.4,20,3.1
VPLSRTPRCTCISIS[Aun]ESKAIKNLLKAVSK (cysteine pairing not given here) [[Pro^7]-IP-10-(1-15)-[linker]-IP-10-(58-71)],16,14,14.4,18.6,55.1
"VPLSRTVRSTSISIS[Aun]ESKAIENLLKAVSK [[Ser^9,Ser^11,Glu^63]-IP-10-(1-15)-[linker]-IP-10-(58-71)]",18.8,18.5,17.2,18.9,46.6
"VPLSRTVRSTSISIS[Aun]ESKAIKNLLEAVSK [[Ser^9,Ser^11,Glu^67]-IP-10-(1-15)-[linker]-IP-10-(58-71)]",17.4,15.4,12.5,13.3,3.4
